Results: patent US9879306B2, “Luciferase biosensors for cAMP” (PROMEGA CORPORATION, priority 2008, dated 2018)
Changes are numbered by the printed parent chain. Names may count otherwise.

T1: GPR41 (Homo sapiens, UniProt O14843)
T1 sequence (O14843 1-346): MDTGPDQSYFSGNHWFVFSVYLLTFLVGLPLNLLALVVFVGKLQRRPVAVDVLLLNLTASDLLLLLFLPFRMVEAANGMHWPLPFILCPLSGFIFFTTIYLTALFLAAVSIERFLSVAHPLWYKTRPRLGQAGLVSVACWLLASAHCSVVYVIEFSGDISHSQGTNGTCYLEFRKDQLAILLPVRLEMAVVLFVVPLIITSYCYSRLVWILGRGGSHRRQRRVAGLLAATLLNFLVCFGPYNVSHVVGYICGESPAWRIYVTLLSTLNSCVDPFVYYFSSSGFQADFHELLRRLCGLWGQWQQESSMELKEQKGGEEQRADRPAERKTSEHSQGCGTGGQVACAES

B1: 15H6: 7A1 biosensor with F433Y, M493V in Luc2.0 and modified linker …; SEQ ID NO:107, 108 (protein)
chain: MPGAVGKVVPFFEAKVVDLDTGKTLGVNQRGELCVRGPMIMSGYVNNPEATNALIDKDGWLHSGDIAYWDEDEHFYIVDRLKSLIKYKGYQVAPAELESILLQHPNIFDAGVAGLPDDDAGELPAAVVVLEHGKTVTEKEIVDYVASQVTTAKKLRGGVVFVDEVPKGLTGKLDARKIREILIKAKKGSNWDSGCSRECMYESFIESLPFLKSLEFSARLKVVDVIGTKVYNDGEQIIAQGDSADSFFIIESGEVKITMKRKGKSEVEENGAVEIARCSRGQYFGELALVTNKPRAASAHAIGTVKCLAMDVQAFERLLGPCMEIMKRNIATYEEQLVALFGTNMDIVAKNIKKGPAPFYPLEDGTAGEQLHKAMKRYALVPGTIAFTDAHIEVDITYAEYFEMSVRLAEAMKRYGLNTNHRIVVCSENSLQFFMPVLGALFIGVAVAPANDIYNERELLNSMGISQPTVVFVSKKGLQKILNVQKKLPIIQKIIIMDSKTDYQGFQSMYTFVTSHLPPGFNEYDFVPESFDRDKTIALIMNSSGSTGLPKGVALPHRTACVRFSHARDPIFGNQIIPDTAILSVVPFHHGFGMFTTLGYLICGFRVVLMYRFEEELFLRSLQDYKIQSALLVPTLFSFFAKSTLIDKYDLSNLHEIASGGAPLSKEVGEAVAKRFHLPGIRQGYGLTETTSAILITPEGV
notes: 7A1 biosensor with F433Y, M493V in Luc2.0 and modified linker …
B2: 9G4: 7A1 biosensor with E382K in RIIβb; SEQ ID NO:37, 38 (protein)
chain: B1 chain with Y76F, V136M, C199G, E316K
B3: 1B3: 7A1 biosensor with A338E in RIIβb; SEQ ID NO:33, 34 (protein)
chain: B1 chain with Y76F, V136M, C199G, A272E
B4: 16B3: 7A1 biosensor with S440N in Luc2.0; SEQ ID NO:72, 73 (protein)
chain: B1 chain with Y76F, S83N, V136M, C199G
B5: L9-ILY: L9 background with Luc2.0 F369I, F518L and RIIβB F407Y; SEQ ID NO:82, 83 (protein)
chain: MPGAVGKVVPFIEAKVVDLDTGKTLGVNQRGELCVRGPMIMSGYVNNPEATNALIDKDGWLHSGDIAYWDEDEHFFIVDRLKSLIKYKGYQVAPAELESILLQHPNIFDAGVAGLPDDDAGELPAAVVVLEHGKTMTEKEIVDYVASQVTTAKKLRGGVVLVDEVPKGLTGKLDARKIREILIKAKKGSIAGCGDAGEGMYESFIESLPILKSLEFSARLKVVDVIGTKVYNDGEQIIAQGDSADSFYIIESGEVKITMKRKGKSEVEENGAVEIARCSRGQYFGELALVTNKPRAASAHAIGTVKCLAMDVQAFERLLGPCMEIMKRNIATYEEQLVALYGTNMDIVAKNIKKGPAPLYPLEDGTAGEQLHKAMKRYALVPGTIAFTDAHIEVDITYAEYFEMSVRLAEAMKRYGLNTNHRIVVCSENSLQFFMPVLGALFIGVAVAPANDIYNERELLNSMGISQPTVVFVSKKGLQKILNVQKKLPIIQKIIIMDSKTDYQGFQSMYTFVTSHLPPGFNEYDFVPESFDRDKTIALIMNSSGSTGLPKGVALPHRTACVRFSHARDPIFGNQIIPDTAILSVVPFHHGFGMFTTLGYLICGFRVVLMYRFEEELFLRSLQDYKIQSALLVPTLFSFFAKSTLIDKYDLSNLHEIASGGAPLSKEVGEAVAKRFHLPGIRQGYGLTETTSAILITPEGV
B6: L9-I: L9 background with Luc2.0 F369I; SEQ ID NO:92, 93 (protein)
chain: B5 chain with L161F, I210F, Y248F, Y341F, L359F
B7: L9-L: L9 background with Luc2.0 F518L; SEQ ID NO:94, 95 (protein)
chain: B5 chain with I12F, I210F, Y248F, Y341F, L359F
B8: L9-ILQY: L9 background with Luc2.0 F369I, F518L, K541Q and RIIβB F407Y; SEQ ID NO:80, 81 (protein)
chain: B5 chain with K184Q, I210F, Y248F, L359F

System: HEK293 cells
Test: Luminescence and fold response of biosensor clones in HEK293 cells after isoproterenol or FSK
Format: cell-based
Conditions: 5 minutes after isoproterenol
Experimental: B. HEK293 cells were transiently transfected with plasmid DNAs encoding various biosensor mutants as above. These biosensor mutants contained the E284A and V316I mutation in the RIIbetaB cAMP binding domain and the modified linker sequence 7A1 (GSNWDSGCSREG; SEQ ID NO: 129). The clones also contained the additional mutations outlined in Table 5. Cells were equilibrated for 2 hours at room temperature with 2 mM EF-Luc. Luminescence was measured 5 and 15 minutes after addition of the isoproterenol and 15 minutes after addition of FSK. Fold response (response; Resp.) was calculated by dividing relative light units (RLUs) from induced cells by the RLUs from uninduced cells. As a control, the biosensor GS358 and 7A1 were included.

Molecule | Isoproterenol-5 minutes Induced [RLU]
B1 | 91567
B2 | 27930
B3 | 59767
B4 | 72003

Same assay, conditions: 15 minutes after FSK

Molecule | Forskolin (FSK) Induced [RLU]
B1 | 29500
B2 | 263020
B3 | 305500
B4 | 257605

Same assay, conditions: 15 minutes after isoproterenol

Molecule | Isoproterenol-15 minutes Induced [RLU]
B1 | 244700
B2 | 264500
B3 | 344375
B4 | 248415

Same assay, conditions: RLU induced / RLU uninduced, 5 minutes after isoproterenol

Molecule | Isoproterenol-5 minutes Resp [fold]
B1 | 85
B2 | 50
B3 | 36
B4 | 35

Same assay, conditions: RLU induced / RLU uninduced, 15 minutes after FSK

Molecule | Forskolin (FSK) Resp [fold]
B1 | 57
B2 | 46
B3 | 47
B4 | 39

Same assay, conditions: RLU induced / RLU uninduced, 15 minutes after isoproterenol

Molecule | Isoproterenol-15 minutes Resp [fold]
B1 | 61
B2 | 46
B3 | 53
B4 | 38

Same assay, conditions: uninduced cells, 5 minutes

Molecule | Isoproterenol-5 minutes Uninduced [RLU]
B1 | 1073
B2 | 553
B3 | 1673
B4 | 2063

Same assay, conditions: uninduced cells, 15 minutes

Molecule | Forskolin (FSK) Uninduced [RLU] | Isoproterenol-15 minutes Uninduced [RLU]
B1 | 4040 | 4040
B2 | 5760 | 5760
B3 | 6460 | 6460
B4 | 6555 | 6555

Target: T2, dopamine D2 receptor (Homo sapiens, UniProt P14416)
T2 construct: expressed in transfected cells
Test: Forskolin, dopamine and haloperidol responses of biosensor clones in HEK293 cells stably expressing the dopamine D2 receptor
Format: cell-based
Conditions: 3 μM FSK + 0.3 μM dopamine, 10 minutes
From the text: To measure changes in the intracellular concentration of cAMP, HEK293 cells are transiently transfected with mutant cAMP biosensors followed by treatment with compounds known to increase or decrease the intracellular cAMP concentration through GPCR activation of Gs- or Gi-coupled receptors, respectively.
HEK293 cells stably expressing the dopamine D2 receptor were transiently transfected with the mutant cAMP biosensors from Example VIIB. Cells were also transfected with either 7A1 (Example III) or GS358 (parent biosensor) as controls. Cells were equilibrated for 2 hours at room temperature using 2 mM EF-luc. Antagonist assay wells were pre-treated for 10-15 minutes at room temperature with 10 μM Haloperidol (Halo). Next, the following reagents were added to their respective wells: media alone to “untreated” samples; 3 μM forskolin (FSK) to “forskolin-treated” samples; 3 μM FSK+0.3 μM dopamine to “agonist-treated” samples; and 3 μM FSK+0.3 μM dopamine to the aforementioned wells pre-treated with Halo. The cells were then incubated at room temperature for 10 minutes and luminescence was measured. Fold response for FSK was calculated by dividing the RLU from “forskolin-treated” cells by the RLU from the “untreated” cells. Fold response for dopamine treatment was calculated by dividing the RLU from the “agonist-treated” cells by the RLU from the “forskolin-treated” cells. Fold response for Haloperidol treatment was calculated by dividing the RLU from the cells treated with haloperidol then forskolin plus dopamine by the RLU of cells treated with forskolin plus dopamine alone.

T2 sequence (P14416 whole entry, species assumed): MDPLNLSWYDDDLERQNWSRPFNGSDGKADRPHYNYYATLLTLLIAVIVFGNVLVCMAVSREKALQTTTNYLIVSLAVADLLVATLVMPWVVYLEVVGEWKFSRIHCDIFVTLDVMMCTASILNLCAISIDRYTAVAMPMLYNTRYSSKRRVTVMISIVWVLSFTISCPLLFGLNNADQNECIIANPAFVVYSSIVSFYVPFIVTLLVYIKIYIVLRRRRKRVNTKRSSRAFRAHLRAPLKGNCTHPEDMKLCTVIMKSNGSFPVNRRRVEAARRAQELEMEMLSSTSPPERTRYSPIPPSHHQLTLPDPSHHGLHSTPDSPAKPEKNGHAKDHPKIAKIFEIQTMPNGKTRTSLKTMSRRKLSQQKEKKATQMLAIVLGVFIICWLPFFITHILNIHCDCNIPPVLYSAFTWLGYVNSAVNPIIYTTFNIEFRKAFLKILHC

Molecule | Dopamine Induced [RLU]
B1 | 30
B2 | 1735
B3 | 1898
B4 | 3050

Same assay, conditions: 3 μM FSK, 10 minutes

Molecule | Forskolin (FSK) Induced [RLU]
B1 | 7177
B2 | 4133
B3 | 8410
B4 | 6400

Same assay, conditions: 10 μM Haloperidol pre-treatment, then 3 μM FSK + 0.3 μM dopamine

Molecule | Halo Induced [RLU]
B1 | 65
B2 | 4370
B3 | 5228
B4 | 6188

Same assay, conditions: RLU agonist-treated / forskolin-treated

Molecule | Dopamine Response [fold]
B1 | 0.56
B2 | 0.42
B3 | 0.23
B4 | 0.48

Same assay, conditions: RLU forskolin-treated / untreated

Molecule | Forskolin (FSK) Response [fold]
B1 | 25
B2 | 14
B3 | 18
B4 | 17

Same assay, conditions: RLU haloperidol then FSK + dopamine / FSK + dopamine alone

Molecule | Halo Response [fold]
B1 | 2.2
B2 | 2.5
B3 | 2.8
B4 | 2.0

Same assay, conditions: untreated (media alone), 10 minutes

Molecule | Forskolin (FSK) Uninduced [RLU]
B1 | 283
B2 | 293
B3 | 460
B4 | 370

Target: T1, GPR41
Test: Sodium proprionate CRC with biosensor variants in HEK293 cells stably expressing GPR41
Format: cell-based
Conditions: with FSK 1 μM
Experimental: (§1) After 24 hours, the cells were transiently transfected with one of the cAMP biosensor variants (Tables 7A and 7B). After another 24 hours, the cells were equilibrated for 2 hours at room temperature using 5 mM EF-luc in CO2 independent media with 10% FBS. Prior to the addition of the compounds, luminescence was measured. The compounds (12× stock in CO2 independent media without FBS) were then added to the cells. For GPR41 expressing cells, sodium proprionate CRC was added. […] The cells were allowed to incubate another 30 minutes and luminescence read on a Varioskan Flash. EC50 values and fold responses were calculated for each of the clones with each of the compounds with or without FSK. In addition, variants […]7 (Example VIIB), 16A2 (Example VIIB) and GS358 were also screened.

Molecule | Fold Response Na proprionate + FSK(1 μM) [fold]
B5 | 4.91
B6 | 3.83
B7 | 5.72

Same assay, conditions: without FSK, ratio of induced to uninduced signal

Molecule | Fold Response Na proprionate [fold]
B5 | 3.34
B6 | 3.61
B7 | 3.04

System: GPR41
Test: as above
Format: cell-based
Conditions: ratio of RLU of FSK treated well to untreated well
Experimental: as §1

Molecule | Fold Signal Change [fold]
B5 | 161.2
B6 | 83.5
B7 | 72.2
B8 | 152.7
